Here are results for one molecule from patent EP4086281A1 (China Immunotech (Beijing) Biotechnology Co., Ltd, dated 2022).

The assay addresses T1, CD19 expressed by Raji cells (human lymphoma cell line) (human, UniProt P15391 20-556).
T1 construct: whole, on cells; On intact Raji cells in flow cytometry and co-culture; In the western blot it is the denatured protein of a Raji lysate (band of 95kD); also called CD19 protein in the Raji cells
T1 sequence (looked up): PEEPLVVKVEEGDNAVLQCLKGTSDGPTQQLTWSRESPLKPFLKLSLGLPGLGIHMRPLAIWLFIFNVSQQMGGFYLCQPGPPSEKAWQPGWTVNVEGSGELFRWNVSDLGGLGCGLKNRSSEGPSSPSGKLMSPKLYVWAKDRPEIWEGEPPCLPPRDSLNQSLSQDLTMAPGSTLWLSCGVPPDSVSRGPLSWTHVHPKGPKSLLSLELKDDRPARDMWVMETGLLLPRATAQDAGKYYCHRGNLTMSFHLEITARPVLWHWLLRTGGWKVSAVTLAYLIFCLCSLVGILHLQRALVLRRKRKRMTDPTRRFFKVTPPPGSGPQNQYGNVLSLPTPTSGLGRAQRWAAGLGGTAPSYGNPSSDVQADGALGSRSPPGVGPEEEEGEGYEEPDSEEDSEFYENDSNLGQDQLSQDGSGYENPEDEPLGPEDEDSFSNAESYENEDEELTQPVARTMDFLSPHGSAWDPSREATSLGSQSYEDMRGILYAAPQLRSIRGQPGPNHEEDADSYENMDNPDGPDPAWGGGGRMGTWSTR
In words: flow cytometry on Raji cells, antibody titrated from 0 to 375 nM, curve fitted with GraphPad. On the technique in general: A flow cytometer gives signals particle by particle.

In general, Kd refers to the free concentration of one partner at which half of the binding sites on the other are occupied at equilibrium, for simple one-to-one binding.

B1: monoclonal antibody 334 targeting CD19 (hybridoma CGMCC No. 17095) (antibody, V domains shown)
VH: QVQLQQSGAELVRPGASVKLSCKALGFIFTDYEIHWVKQTPVHGLEWIGAFHPGSGGSAYNQKFKGKATLTADKSSSTAYMELSSLTFEDSAVYHCTRQLGPDWGQGTLVTVS
VL: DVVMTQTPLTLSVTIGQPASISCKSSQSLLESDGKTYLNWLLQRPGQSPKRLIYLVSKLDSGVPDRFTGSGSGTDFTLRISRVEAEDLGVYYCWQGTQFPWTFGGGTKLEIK
notes: it is a hybridoma antibody detected with anti-mouse secondary antibodies
Regarding B1, the Kd worked out at 1.53 nM. This counts as single-digit nanomolar.
